Read-outs that look alike come from different tables or passages of the source.
T1: DNA polymerase alpha catalytic subunit POLA1 (334-1462) (human, UniProt P09884 334-1462)
T1 sequence (looked up): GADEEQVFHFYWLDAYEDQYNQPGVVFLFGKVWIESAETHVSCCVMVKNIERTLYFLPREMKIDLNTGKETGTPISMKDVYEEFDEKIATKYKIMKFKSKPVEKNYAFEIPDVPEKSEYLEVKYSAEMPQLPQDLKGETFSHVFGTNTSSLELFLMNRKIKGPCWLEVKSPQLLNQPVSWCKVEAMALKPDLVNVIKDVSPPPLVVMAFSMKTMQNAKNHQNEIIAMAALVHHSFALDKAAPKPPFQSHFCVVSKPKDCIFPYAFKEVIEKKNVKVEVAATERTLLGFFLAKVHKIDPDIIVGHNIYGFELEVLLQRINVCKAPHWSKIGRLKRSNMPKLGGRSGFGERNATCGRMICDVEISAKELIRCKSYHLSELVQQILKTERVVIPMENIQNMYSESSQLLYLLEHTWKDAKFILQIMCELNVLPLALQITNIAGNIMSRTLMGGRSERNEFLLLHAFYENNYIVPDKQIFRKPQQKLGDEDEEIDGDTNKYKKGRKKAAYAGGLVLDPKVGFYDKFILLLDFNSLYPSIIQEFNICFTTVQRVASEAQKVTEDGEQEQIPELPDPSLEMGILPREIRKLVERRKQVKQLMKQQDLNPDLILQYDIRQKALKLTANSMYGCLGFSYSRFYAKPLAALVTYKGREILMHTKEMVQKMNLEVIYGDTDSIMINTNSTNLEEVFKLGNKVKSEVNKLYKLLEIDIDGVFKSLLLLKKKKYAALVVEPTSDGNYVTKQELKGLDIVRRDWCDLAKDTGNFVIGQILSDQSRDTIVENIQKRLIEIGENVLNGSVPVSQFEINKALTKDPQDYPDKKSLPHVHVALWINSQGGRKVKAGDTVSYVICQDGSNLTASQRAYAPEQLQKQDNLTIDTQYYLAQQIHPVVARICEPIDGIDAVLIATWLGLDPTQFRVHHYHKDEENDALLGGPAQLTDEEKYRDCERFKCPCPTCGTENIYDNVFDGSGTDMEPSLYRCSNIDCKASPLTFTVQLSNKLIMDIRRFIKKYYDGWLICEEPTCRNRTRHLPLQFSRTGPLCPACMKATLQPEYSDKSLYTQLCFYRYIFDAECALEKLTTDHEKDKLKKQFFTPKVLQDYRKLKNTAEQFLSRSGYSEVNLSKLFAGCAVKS

B1: primase regulatory subunit PRIM2 (1-509) (natural protein, human, UniProt P49643 1-509, looked up)
chain: MEFSGRKWRKLRLAGDQRNASYPHCLQFYLQPPSENISLIEFENLAIDRVKLLKSVENLGVSYVKGTEQYQSKLESELRKLKFSYRENLEDEYEPRRRDHISHFILRLAYCQSEELRRWFIQQEMDLLRFRFSILPKDKIQDFLKDSQLQFEAISDEEKTLREQEIVASSPSLSGLKLGFESIYKIPFADALDLFRGRKVYLEDGFAYVPLKDIVAIILNEFRAKLSKALALTARSLPAVQSDERLQPLLNHLSHSYTGQDYSTQGNVGKISLDQIDLLSTKSFPPCMRQLHKALRENHHLRHGGRMQYGLFLKGIGLTLEQALQFWKQEFIKGKMDPDKFDKGYSYNIRHSFGKEGKRTDYTPFSCLKIILSNPPSQGDYHGCPFRHSDPELLKQKLQSYKISPGGISQILDLVKGTHYQVACQKYFEMIHNVDDCGFSLNHPNQFFCESQRILNGGKDIKKEPIQPETPQPKPSVQKTKDASSALASLNSSLEMDMEGLEDYFSEDS
B2: primase catalytic subunit PRIM1 (1-420) (enzyme, human, UniProt P49642 1-420, looked up)
chain: METFDPTELPELLKLYYRRLFPYSQYYRWLNYGGVIKNYFQHREFSFTLKDDIYIRYQSFNNQSDLEKEMQKMNPYKIDIGAVYSHRPNQHNTVKLGAFQAQEKELVFDIDMTDYDDVRRCCSSADICPKCWTLMTMAIRIIDRALKEDFGFKHRLWVYSGRRGVHCWVCDESVRKLSSAVRSGIVEYLSLVKGGQDVKKKVHLSEKIHPFIRKSINIIKKYFEEYALVNQDILENKESWDKILALVPETIHDELQQSFQKSHNSLQRWEHLKKVASRYQNNIKNDKYGPWLEWEIMLQYCFPRLDINVSKGINHLLKSPFSVHPKTGRISVPIDLQKVDQFDPFTVPTISFICRELDAISTNEEEKEENEAESDVKHRTRDYKKTSLAPYVKVFEHFLENLDKSRKGELLKKSDLQKDF
B3: DNA polymerase alpha accessory B subunit POLA2 (149-598) (domain or fragment, human, UniProt Q14181 149-598, looked up)
chain: SSFSPSATPSQKYNSRSNRGEVVTSFGLAQGVSWSGRGGAGNISLKVLGCPEALTGSYKSMFQKLPDIREVLTCKIEELGSELKEHYKIEAFTPLLAPAQEPVTLLGQIGCDSNGKLNNKSVILEGDREHSSGAQIPVDLSELKEYSLFPGQVVIMEGINTTGRKLVATKLYEGVPLPFYQPTEEDADFEQSMVLVACGPYTTSDSITYDPLLDLIAVINHDRPDVCILFGPFLDAKHEQVENCLLTSPFEDIFKQCLRTIIEGTRSSGSHLVFVPSLRDVHHEPVYPQPPFSYSDLSREDKKQVQFVSEPCSLSINGVIFGLTSTDLLFHLGAEEISSSSGTSDRFSRILKHILTQRSYYPLYPPQEDMAIDYESFYVYAQLPVTPDVLIIPSELRYFVKDVLGCVCVNPGRLTKGQVGGTFARLYLRRPAADGAERQSPCIAVQVVRI

Legend:
Assay in all cases: cryo-EM structure
[1] = biological target: T1, DNA polymerase alpha catalytic subunit …
[2] = biological target: T1, DNA polymerase alpha catalytic subunit …; remark: listed apart in the source
[3] = biological target: B1

| Binder | binding result [1] | binding result [2] | binding result [3] |
| --- | --- | --- | --- |
| B1 | binds | – | – |
| B2 | – | binds | binds |
| B3 | – | binds | – |

From article doi:10.1101/2023.07.20.549859 (bioRxiv, 2023)
